Data published in the supplement of paper PMC10724198.
± gives the standard deviation of the averaged measurements.

Legend:
[1] = test system: Saccharomyces cerevisiae; assay: protein stability index of tFT-peptide fusion (C-terminal peptide) (PSI (0-1 scale)); higher = more stable (slower turnover)
Experimental: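 MPS profiling in S. cerevisiae of the tFT-X12 degron library: putative degron peptides plus stable controls, 12 aa, fused to the C-terminus of a sfGFP-mCherry timer. Cells are FACS-sorted into 8 mCherry/sfGFP bins and deep-sequenced. PSI runs from 0 (unstable) to 1 (stable). Backgrounds are wild type, das1Δ and doa10Δ at 30 °C, and wild type, das1Δ, cdc34-1 and cdc53-1 at 37 °C; 2-3 technical replicates each.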

[2] = test system: Saccharomyces cerevisiae; assay: as above; conditions: genetic background: wild type; temperature: 30 C
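Note: PSI is a weighted mean of sequencing reads over stability bins, variants kept only with over 10 reads, mCherry proximal and sfGFP distal, peptide attached via GGGS linker.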

Sequence: FSQGFRSPSECL
- protein stability index ([1]; genetic background: cdc34-1, temperature: 37 C): 0.712 ± 0.03
- protein stability index ([1]; genetic background: cdc53-1, temperature: 37 C): 0.764 ± 0.014
- protein stability index ([1]; genetic background: das1 deletion, temperature: 30 C): 0.63 ± 0.016
- protein stability index ([1]; genetic background: das1 deletion, temperature: 37 C): 0.765 ± 0.036
- protein stability index ([1]; genetic background: doa10 deletion, temperature: 30 C): 0.647 ± 0.011
- protein stability index ([1]; genetic background: wild type, temperature: 30 C): 0.655 ± 0.023
- protein stability index ([1]; genetic background: wild type, temperature: 37 C): 0.7608 ± 0.0072

Sequence: TPPSPHPCPSPL
- protein stability index [2]: 0.797 ± 0.064

Sequence: PYLLPPFLPSPP
- protein stability index [2]: 0.732 ± 0.029

Sequence: PPRSPPPTPPLF
- protein stability index [2]: 0.611 ± 0.01

Sequence: PTNQHNLEQRPE
- protein stability index [2]: 0.667 ± 0.05

Sequence: PRDTTIPLVLGF
- protein stability index [2]: 0.63756 ± 0.00037

Sequence: FWGCCGGVGPRG
- protein stability index [2]: 0.709 ± 0.0077

Sequence: GGHLTMMFGRLF
- protein stability index [2]: 0.713 ± 0.019

Sequence: PVDAAPCSPSGL
- protein stability index [2]: 0.663 ± 0.041

Sequence: REWCSGGPCAAS
- protein stability index [2]: 0.721 ± 0.043

Sequence: RCRKVSTISRFK
- protein stability index [2]: 0.7053 ± 0.002

Sequence: GGTKGKAGGEAA
- protein stability index [2]: 0.672 ± 0.043

Sequence: LAPPYPSSASSH
- protein stability index [2]: 0.688 ± 0.022

Sequence: CLRRRSLSPLFI
- protein stability index [2]: 0.7252 ± 0.0057

Sequence: LPHPRPPQSPPQ
- protein stability index [2]: 0.7 ± 0.03

Sequence: RRGYLVPLPSHA
- protein stability index [2]: 0.669 ± 0.039

Sequence: SRSKVVVHNSYW
- protein stability index [2]: 0.724 ± 0.14

Sequence: IPLSPLRSPPPR
- protein stability index [2]: 0.648 ± 0.023

Sequence: GRSPMGDGGFFS
- protein stability index [2]: 0.7284 ± 0.0034

Sequence: SRFLPPSHLLPP
- protein stability index [2]: 0.738 ± 0.093

Sequence: SPTPLDPLRAPL
- protein stability index [2]: 0.6902 ± 0.0027

Sequence: VSFPHSRLSLTI
- protein stability index [2]: 0.747 ± 0.02

Sequence: TDFAVTKDFTEI
- protein stability index [2]: 0.683 ± 0.033

Sequence: RLSGRRLVNYRP
- protein stability index [2]: 0.641 ± 0.036

Sequence: LLPISFVSPPPG
- protein stability index [2]: 0.6915 ± 0.0026

Sequence: GETGGACGVWAG
- protein stability index [2]: 0.685 ± 0.066

Sequence: GRIVPSFQGSPQ
- protein stability index [2]: 0.723 ± 0.093

Sequence: VVRQADVLLGLV
- protein stability index [2]: 0.662 ± 0.019

Sequence: LGLPISREASVG
- protein stability index [2]: 0.637 ± 0.011

Sequence: HLTIVNYIWEIL
- protein stability index [2]: 0.549 ± 0.0059

Sequence: ASRPPAPVPLPL
- protein stability index [2]: 0.686 ± 0.015

Sequence: SPPFLPPLITFP
- protein stability index [2]: 0.681 ± 0.023

Sequence: PRPPPPRPPFST
- protein stability index [2]: 0.717 ± 0.01

Sequence: SRVPTSRARKRS
- protein stability index [2]: 0.7001 ± 0.0042

Sequence: IKKITKTKPNHN
- protein stability index [2]: 0.673 ± 0.053

Sequence: TCLWVCARGFGG
- protein stability index [2]: 0.693 ± 0.021

Sequence: VSSVSLRVRVLF
- protein stability index [2]: 0.564 ± 0.08

Sequence: RPRNRRGGRGDE
- protein stability index [2]: 0.672 ± 0.0062

Sequence: FLVFRFPFGFSC
- protein stability index [2]: 0.566 ± 0.025

Sequence: EPGFWGGRGGRA
- protein stability index [2]: 0.661 ± 0.01

Sequence: GYTSADHATALY
- protein stability index [2]: 0.755 ± 0.054

Sequence: PRPAPPPPSTPP
- protein stability index [2]: 0.6411 ± 0.0051

Sequence: LPPFLLPPFFSI
- protein stability index [2]: 0.718 ± 0.055

Sequence: LPPPPTCYDHPL
- protein stability index [2]: 0.676 ± 0.052

Sequence: RIGELRYATQMK
- protein stability index [2]: 0.676 ± 0.052

Sequence: HLPPPPTLPPFP
- protein stability index [2]: 0.6905 ± 0.0068

Sequence: PSSPPSSTSPPL
- protein stability index [2]: 0.633 ± 0.16

Sequence: RKATGVLQVQDY
- protein stability index [2]: 0.749 ± 0.14

Sequence: IGVGVGIDGLPW
- protein stability index [2]: 0.693 ± 0.093

Sequence: SLRICGAFPRTF
- protein stability index [2]: 0.705 ± 0.0092

Sequence: PPSPPHIHTYLT
- protein stability index [2]: 0.6939 ± 0.0011

Sequence: PLPPPPPPPSTP
- protein stability index [2]: 0.784 ± 0.0098

Sequence: RKAPLLFSLSHK
- protein stability index [2]: 0.6761 ± 0.0031

Sequence: GGTCWEGEVVDV
- protein stability index [2]: 0.641 ± 0.029

Sequence: GWAWGVALGVRG
- protein stability index [2]: 0.54189 ± 0.00034

Sequence: PVAGSAGVRNLP
- protein stability index [2]: 0.671 ± 0.012

Sequence: PTPPPLLTRPLP
- protein stability index [2]: 0.709 ± 0.11

Sequence: RKEKNRKEKSIQ
- protein stability index [2]: 0.668 ± 0.013

Sequence: VVGGGDWRWGVW
- protein stability index [2]: 0.7709 ± 0.0046

Sequence: PPLRPGLLYSPS
- protein stability index [2]: 0.687 ± 0.019

Sequence: VFHLATSVRRRY
- protein stability index [2]: 0.672 ± 0.051

Sequence: PTSLPAPPRLPF
- protein stability index [2]: 0.713 ± 0.023

Sequence: PPPPLLRSPLHL
- protein stability index [2]: 0.731 ± 0.011

Sequence: PPSSPPPPDSDR
- protein stability index [2]: 0.6746 ± 0.0037

Sequence: FNHYPSPPQRFY
- protein stability index [2]: 0.685 ± 0.072

Sequence: RSDIANWFLCLS
- protein stability index [2]: 0.798 ± 0.037

Sequence: VVGSVPVSAFWE
- protein stability index [2]: 0.746 ± 0.075

Sequence: SRACTRRSHTLE
- protein stability index [2]: 0.681 ± 0.032

Sequence: SGSVALWVCSVV
- protein stability index [2]: 0.5878 ± 0.0056

Sequence: TSTDLKKTNLQN
- protein stability index [2]: 0.645 ± 0.021

Sequence: LPLPPLPPGMLS
- protein stability index [2]: 0.747 ± 0.073

Sequence: VNILKRQKRARG
- protein stability index [2]: 0.72 ± 0.052

Sequence: PSSPPPPPPPPH
- protein stability index [2]: 0.71 ± 0.0097

Sequence: DCRLPSLPPCVA
- protein stability index [2]: 0.648 ± 0.059

Sequence: SLFRSSHPPRPP
- protein stability index [2]: 0.605 ± 0.034

Sequence: GSLGTTTILRKT
- protein stability index [2]: 0.67 ± 0.064

Sequence: KTRRHDQKMEKI
- protein stability index [2]: 0.659 ± 0.026

Sequence: VVCFGNFGGVRV
- protein stability index [2]: 0.778 ± 0.049

Sequence: KGYGKTGTLRHD
- protein stability index [2]: 0.646 ± 0.013

Sequence: EQVRVDETTGRR
- protein stability index [2]: 0.722 ± 0.025

Sequence: GSGTGRWPGYGS
- protein stability index [2]: 0.718 ± 0.088

Sequence: WCIPEAPVATSR
- protein stability index [2]: 0.684 ± 0.0083

Sequence: AQCDAVPFMFCV
- protein stability index [2]: 0.663 ± 0.025

Sequence: SPPRATVRPTSP
- protein stability index [2]: 0.824 ± 0.078

Sequence: EMGGLKACRGVG
- protein stability index [2]: 0.56565 ± 0.00029

Sequence: EAGGRWEVSCQA
- protein stability index [2]: 0.6133 ± 0.0017

Sequence: FSLPLSPRGDCP
- protein stability index [2]: 0.6991 ± 0.0014

Sequence: RWRRGGRRAPWP
- protein stability index [2]: 0.62 ± 0.012

Sequence: GYNLTNVIPGVG
- protein stability index [2]: 0.681 ± 0.016

Sequence: YLVPPLQPHSPA
- protein stability index [2]: 0.7305 ± 0.0056

Sequence: LPPLPRPLLLPR
- protein stability index [2]: 0.661 ± 0.044

Sequence: SPPPARLLPPPS
- protein stability index [2]: 0.723 ± 0.12

Sequence: ARLPTYLAAPPP
- protein stability index [2]: 0.726 ± 0.089

Sequence: FGCISAGLGWMY
- protein stability index [2]: 0.721 ± 0.048

Sequence: MCVFGLFCSCFD
- protein stability index [2]: 0.586 ± 0.082

Sequence: DTEYVFLYSSQE
- protein stability index [2]: 0.7029 ± 0.0051

Sequence: EAVVVLVSRFGL
- protein stability index [2]: 0.695 ± 0.044

Sequence: LLSSPPSPGFSL
- protein stability index [2]: 0.748 ± 0.12

Sequence: LPRPPPPPALPT
- protein stability index [2]: 0.66 ± 0.087

Sequence: GGSRRRAVGAGV
- protein stability index [2]: 0.709 ± 0.057

Sequence: RGGGQVLGARVG
- protein stability index [2]: 0.634 ± 0.017

Sequence: ALLSFVVSSGPA
- protein stability index [2]: 0.675 ± 0.026

Sequence: VSLGALFEFRAA
- protein stability index [2]: 0.745 ± 0.015

Sequence: PPAPFAICRTRS
- protein stability index [2]: 0.654 ± 0.018

Sequence: EGAGGVEGAAWG
- protein stability index [2]: 0.7 ± 0.018

Sequence: LLAPPLPPPRHG
- protein stability index [2]: 0.674 ± 0.018

Sequence: CERIGIRHLIKW
- protein stability index [2]: 0.657 ± 0.036

Sequence: RKYGWSGIGCRA
- protein stability index [2]: 0.659 ± 0.016

Sequence: DLDVVGEGSAGT
- protein stability index [2]: 0.683 ± 0.046

Sequence: AGGQRCNWGNTI
- protein stability index [2]: 0.6778 ± 0.0053

Sequence: SSENIQLADQLR
- protein stability index [2]: 0.702 ± 0.046

Sequence: IKREATNASEPN
- protein stability index [2]: 0.686 ± 0.057

Sequence: VIDQRIDIAYFS
- protein stability index [2]: 0.746 ± 0.1

Sequence: SGVPGGSVGVPG
- protein stability index [2]: 0.661 ± 0.028

Sequence: SPPAPLPPPLPR
- protein stability index [2]: 0.648 ± 0.025

Sequence: RRLGVACCVVEG
- protein stability index [2]: 0.599 ± 0.0061

Sequence: WQWDMESKRKKE
- protein stability index [2]: 0.7056 ± 0.0026

Sequence: EDCICPLNWFTA
- protein stability index [2]: 0.711 ± 0.013

Sequence: RTIPSPDVRTRD
- protein stability index [2]: 0.77 ± 0.011

Sequence: RGVRLGPSVVVG
- protein stability index [2]: 0.696 ± 0.051

Sequence: AIRIERLGLAIP
- protein stability index [2]: 0.682 ± 0.033

Sequence: LPPPPLPQAPPT
- protein stability index [2]: 0.702 ± 0.075

Sequence: LILLTIQSQPPV
- protein stability index [2]: 0.622 ± 0.0018

Sequence: KESEKRKRENKN
- protein stability index [2]: 0.698 ± 0.025

Sequence: LADLLRCSYSLS
- protein stability index [2]: 0.677 ± 0.046

Sequence: EINSIEQESGTT
- protein stability index [2]: 0.677 ± 0.019

Sequence: CVGFCLGKCTMS
- protein stability index [2]: 0.732 ± 0.014

Sequence: PSLSSHPALLFI
- protein stability index [2]: 0.752 ± 0.038

Sequence: IPRRMFNIRKKR
- protein stability index [2]: 0.666 ± 0.036

Sequence: PSPRPPSPLFPP
- protein stability index [2]: 0.685 ± 0.073

Sequence: GRCHRFQWSVRR
- protein stability index [2]: 0.681 ± 0.015

Sequence: SIMSVLPYCSCS
- protein stability index [2]: 0.708 ± 0.06

Sequence: WSWRGMVELVEE
- protein stability index [2]: 0.642 ± 0.069

Sequence: LSVSSLMFNWRS
- protein stability index [2]: 0.707 ± 0.02

Sequence: HACGGVFLSSVR
- protein stability index [2]: 0.693 ± 0.025

Sequence: VLTGQQSVFGAK
- protein stability index [2]: 0.752 ± 0.096

Sequence: HKGRVRACVFGV
- protein stability index [2]: 0.666 ± 0.017

Sequence: PHAHTAPPPVPP
- protein stability index [2]: 0.601 ± 0.017

Sequence: PLLSLGCFPFCL
- protein stability index [2]: 0.724 ± 0.082

Sequence: YPPLSYSFCHRP
- protein stability index [2]: 0.637 ± 0.072

Sequence: GRGGVGWGEWDR
- protein stability index [2]: 0.729 ± 0.056

Sequence: SSDFTSRHTRPP
- protein stability index [2]: 0.639 ± 0.035

Sequence: SLSPPSSPLPPP
- protein stability index [2]: 0.703 ± 0.053

Sequence: LPSPSGSPVPFL
- protein stability index [2]: 0.771 ± 0.041
